Laboratory results as given in patent publication US11732048B2, “Anti-axl antagonistic antibodies” (BERGEN TEKNOLOGIOVERFØRING AS, priority 2016, dated 2023).
“Also recorded” adds a separate entry of the source.

Tests used:
[1] = system: Axl signalling (phosphorylation of Akt on Ser473) in HeLa cells; test: Gas6-induced Axl downstream signalling, phospho-Akt (Ser473) Western blot; assay type: cell-based, human; settings: pre-incubation 1 μg/mL 1 hr, then mouse Gas6 10 μg/mL 20 min
Method: The experiments were performed using human cervical cancer derived cell line HeLa (ATCC® CCL-2™). The cells were grown in T175 flasks to 80% confluency in MEM culture medium (Sigma) supplemented with 10% FBS, penicillin-streptomycin and L-glutamine. The cells were washed with PBS and detached by treatment with 0.25% Trypsin/EDTA (Sigma) followed by centrifugation and resuspension in fresh medium (MEM/0.5% FBS). The cells were seeded in Petri dishes (3×10^6 cells per dish) in MEM medium supplemented with 10% FBS. After three hrs incubation at 37° C., the cells were washed with PBS and kept in starvation medium (MEM/0.5% FBS) overnight. The cells were pre-incubated with anti-Axl antibody 10G5 at concentration 1 μg/mL for 1 hr followed by stimulation with Axl ligand, recombinant mouse Gas6 (R&D Systems), at concentration 10 μg/mL for 20 min. […] Detection with anti-GAPDH antibody (Millipore) was used as loading control.

[2] = target: T1, Hs-Axl-Fc (immobilized Axl-Fc) (Homo sapiens, UniProt P30530); test: Biacore binding competition assays, two injections (Example 22)
T1 construct: Fc
From the text: Sensor chip with immobilised Axl: Hs-Axl-Fc (638.2 RU), Mm-Axl-Fc (334.5 RU), Rhe-Axl-Fc (350.2 RU)
In this experiment, a first antibody was allowed to bind to saturation. A second antibody was then applied and its ability to bind was monitored.
If the second antibody recognizes the same (or overlapping) epitope as the first antibody then binding will be blocked. If the second antibody recognizes a different epitope then binding will be detected at the same level as if no first antibody was present.
The ability of Gas6 to block antibody binding was also tested, using Gas6 at 10 μg/mL in HBS-EP.
All tests were performed in parallel on Hs-Axl-Fc, Mm-Axl-Fc and Rhe-Axl-Fc surfaces.
See FIG. 1 for a list of the pairs that were tested (in this list Contr-1 is incorrectly labeled YW367 instead of YW327.6S2var). All antibodies were at 25 μg/mL in HBS-EP.
• 2. Perform Biacore experiments at 25° C. • 3. In the instrument control software choose Direct Binding, and select settings for two injections as shown below. • 4. […] Store the template & the result file, start the analysis.

Hu-Axl-Fc = target: T2, Hu-Axl-Fc (Homo sapiens, UniProt P30530); test: Biacore competition binding c10G5 versus YW327.6S2-var (Example 21); settings: 666.7 nM each, first and second sample
T2 construct: Fc
Method: Injections: • Use Flow Cell(s): 2 with 1 as reference • Flow Rate: 30 (μL/min) • Number of Injections: 2 • First Sample: • Injection Time: 3 (min) • Wait After Injection: 2.5 (min) • Second Sample: • Injection Time: 3 (min) • Wait After Injection: 2.5 (min)
The competitive binding analysis was performed by injecting a first sample (MAbs c10G5 or YW327.6S2-var) at a concentration sufficient to reach plateau within 1-2 min followed by injection of MAb YW327.6S2-var as a second sample (FIG. 21A).
In a second part of the of experiment, the antibody YW327.6S2-var was injected as a first sample followed by injection of either antibody YW327.6S2-var or c10G5 as a second sample (FIG. 21B).

cyno-Axl (cyno-Axl-Fc) = test: Biacore binding analysis on immobilised cynomolgus Axl; set-up: species or system cynomolgus monkey (Macaca fascicularis); settings: 10 μg/mL in HBS-EP, 25° C.
Sequence of cyno-Axl (cyno-Axl-Fc) (as listed by the source): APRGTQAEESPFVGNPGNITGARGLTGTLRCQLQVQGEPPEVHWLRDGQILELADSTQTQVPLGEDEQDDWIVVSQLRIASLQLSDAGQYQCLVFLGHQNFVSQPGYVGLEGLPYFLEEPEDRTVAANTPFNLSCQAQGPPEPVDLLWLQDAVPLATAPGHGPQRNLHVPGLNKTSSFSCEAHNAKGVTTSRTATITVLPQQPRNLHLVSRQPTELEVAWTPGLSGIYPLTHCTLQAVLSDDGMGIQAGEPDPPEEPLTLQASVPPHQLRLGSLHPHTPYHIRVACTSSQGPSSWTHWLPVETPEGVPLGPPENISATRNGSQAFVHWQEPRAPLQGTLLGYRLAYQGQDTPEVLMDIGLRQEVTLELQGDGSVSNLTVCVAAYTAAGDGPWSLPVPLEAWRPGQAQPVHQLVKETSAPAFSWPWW
Method: The sequence of Axl receptor from cynomolgus monkey (Macaca fascicularis; SEQ ID NO: 27) was retrieved from WO2009062690A1. Based on the sequence, recombinant extracellular domain of cyno-Axl was generated by transient expression in CHO cells as a fusion protein with human Fc. The recombinant cyno-Axl-Fc was purified to homogeneity using Protein A-Sepharose (GE Healthcare). The binding experiments were performed using Biacore 3000 instrument (GE Healthcare) at 25° C. The soluble recombinant antigens corresponding to human Axl (rhAxl-Fc chimera; R&D Systems, Cat. no. 154-AL) and cyno-Axl were immobilized on the surface of CM5 sensor chip using amine coupling at the surface density of 775 and 880 RU, respectively. The Biacore runs were performed in an automatic mode using Binding analysis wizard.
The sample containing MAb 10G5 or human Axl-specific MAb 5F11 (control) at concentration 10 μg/mL in HBS-EP buffer (GE Healthcare) was injected over the surfaces with immobilized antigens at flow rate of 30 μL/min for 3 min (association) followed by 5 min dissociation.

Mv4-11 tumours = test: Mv4-11 human AML xenograft in nude mice; assay type: in vivo, mouse; settings: 30 mg/kg i.p. twice weekly, after three weeks of treatment, versus vehicle
Method: To evaluate the anti-tumour activity of anti-Axl chimeric antibodies in a model of haematological cancer, we used a mouse xenograft model of human acute myeloid leukaemia (AML). The human AML Mv4-11 cells (ATCC #CRL-9591) cells were propagated in suspension in IMDM medium supplemented with 10% FBS, 2 mM L-Glutamine, 100 U/ml penicillin and 100 μg/ml streptomycin. Nude mice were implanted s.c. into the flank with 5×10^6 Mv4-11 cells resuspended in the mixture of serum-free IMDM medium and Matrigel (1:1). When the tumour size reached 200 mm^3 (Day 0 in FIG. 15), the animals were randomized and treated with either vehicle (sterile PBS) or anti-Axl chimeric antibody 10G5 at 30 mg/kg, by i.p. injections twice weekly for 4 weeks.

Row | Competition with 1H12 for binding to Axl [2] | Competition between 10G5 and YW327.6S2 for binding to Axl (Hu-Axl-Fc) | Molecule | Gas6-induced phosphorylation of Akt on Ser473 [1] | Binding to Axl from cynomolgus monkey (cyno-Axl (cyno-Axl-Fc)) | Inhibition of Mv4-11 tumour growth (Mv4-11 tumours)
1 | No competition | does not compete | murine 10G5: mouse monoclonal anti-human Axl antibody from hybridoma WR-10G5-E5; VH SEQ ID NO: 28, VL SEQ ID NO: 29 (antibody, listed as Mus musculus, V domains shown, (1)..(118) Mus musculus 10G5 VH domain; (1)..(112) Mus musculus 10G5 VL domain) VH: QVQLQQSGAELVRPGASVKLSCKASGYSFTDFYINWVRQRPGQGLEWIARIFPGGDNTYYNEKFKGKATLTAEESSSTAYIQLSSLTSEDSAVYFCARRGLYYAMDYWGQGISVTVSS VL: DVLMTQTPLSLPVSLGDQASISCRSSQSLVHSNGIPYLHWYLQKPGQSPKLLIYRVSNRFSGVPDRFSGSGSGTDFTLKISRVEAEDLGVYFCSQGTHVPPTFGGGTKLEIK | significantly reduces; also recorded: significantly be reduced | bind strongly; also recorded: strong and specific interaction | 
2 |  |  | c10G5: chimeric (mouse variable/human constant) IgG1 antibody with the 10G5 VH and VL (antibody, V domains shown) VH: QVQLQQSGAELVRPGASVKLSCKASGYSFTDFYINWVRQRPGQGLEWIARIFPGGDNTYYNEKFKGKATLTAEESSSTAYIQLSSLTSEDSAVYFCARRGLYYAMDYWGQGISVTVSS VL: DVLMTQTPLSLPVSLGDQASISCRSSQSLVHSNGIPYLHWYLQKPGQSPKLLIYRVSNRFSGVPDRFSGSGSGTDFTLKISRVEAEDLGVYFCSQGTHVPPTFGGGTKLEIK |  |  | around 75%
